Source: IntAct's records for PubMed 16864798

Target: plk1_human PLK1 (UniProt P53350)
Sequence (P53350 whole entry): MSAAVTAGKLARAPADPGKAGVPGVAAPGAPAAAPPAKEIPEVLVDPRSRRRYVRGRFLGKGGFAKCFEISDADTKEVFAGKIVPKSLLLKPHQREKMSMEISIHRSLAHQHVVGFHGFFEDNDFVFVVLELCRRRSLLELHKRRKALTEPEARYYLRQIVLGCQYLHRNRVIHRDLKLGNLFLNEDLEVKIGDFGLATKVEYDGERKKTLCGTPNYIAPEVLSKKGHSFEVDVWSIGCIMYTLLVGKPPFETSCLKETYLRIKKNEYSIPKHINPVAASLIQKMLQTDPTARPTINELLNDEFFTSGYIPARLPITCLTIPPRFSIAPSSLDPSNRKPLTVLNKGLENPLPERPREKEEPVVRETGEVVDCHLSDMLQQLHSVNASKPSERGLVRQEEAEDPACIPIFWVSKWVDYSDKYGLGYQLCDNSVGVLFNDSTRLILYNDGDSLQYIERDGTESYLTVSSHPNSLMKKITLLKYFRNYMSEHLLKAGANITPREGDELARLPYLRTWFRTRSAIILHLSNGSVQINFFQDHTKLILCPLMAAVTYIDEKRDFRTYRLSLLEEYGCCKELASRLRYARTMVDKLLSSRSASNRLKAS

- effect of a mutation on the interaction: disrupting interaction strength
Substance: RecQ-like DNA helicase BLM (Homo sapiens), P54132 S144A;S304A;S1290A;S1296A
